Data on four molecules can be found in paper PMC12078616, “A FAN1 point mutation associated with accelerated Huntington’s disease progression alters its PCNA-mediated assembly on DNA”.

The target of data set [1] is T1, FAN1 WT (human, UniProt Q9Y2M0 1-1017). Briefly: cryo-EM; 3.20 Å; EMD-19844; PDB id inconsistent in paper (Data availability says 9EO1; Supp. Table 3 and text imply 9EOA); MST: 25 mM HEPES pH 7.5, 125 mM KCl, 10 mM CaCl2, 5% glycerol, 1 mM TCEP, 0.005% Tween-20, 0.1% BSA, 10 nM Cy5-DNA, 25 °C; SPR buffer not in the material. The following applies: protein: recombinant; tags: His tag removed by PreScission; double flap: 1:2 1:3; 5' flap and 3' poly-T flap.
T1 sequence (Q9Y2M0 whole entry): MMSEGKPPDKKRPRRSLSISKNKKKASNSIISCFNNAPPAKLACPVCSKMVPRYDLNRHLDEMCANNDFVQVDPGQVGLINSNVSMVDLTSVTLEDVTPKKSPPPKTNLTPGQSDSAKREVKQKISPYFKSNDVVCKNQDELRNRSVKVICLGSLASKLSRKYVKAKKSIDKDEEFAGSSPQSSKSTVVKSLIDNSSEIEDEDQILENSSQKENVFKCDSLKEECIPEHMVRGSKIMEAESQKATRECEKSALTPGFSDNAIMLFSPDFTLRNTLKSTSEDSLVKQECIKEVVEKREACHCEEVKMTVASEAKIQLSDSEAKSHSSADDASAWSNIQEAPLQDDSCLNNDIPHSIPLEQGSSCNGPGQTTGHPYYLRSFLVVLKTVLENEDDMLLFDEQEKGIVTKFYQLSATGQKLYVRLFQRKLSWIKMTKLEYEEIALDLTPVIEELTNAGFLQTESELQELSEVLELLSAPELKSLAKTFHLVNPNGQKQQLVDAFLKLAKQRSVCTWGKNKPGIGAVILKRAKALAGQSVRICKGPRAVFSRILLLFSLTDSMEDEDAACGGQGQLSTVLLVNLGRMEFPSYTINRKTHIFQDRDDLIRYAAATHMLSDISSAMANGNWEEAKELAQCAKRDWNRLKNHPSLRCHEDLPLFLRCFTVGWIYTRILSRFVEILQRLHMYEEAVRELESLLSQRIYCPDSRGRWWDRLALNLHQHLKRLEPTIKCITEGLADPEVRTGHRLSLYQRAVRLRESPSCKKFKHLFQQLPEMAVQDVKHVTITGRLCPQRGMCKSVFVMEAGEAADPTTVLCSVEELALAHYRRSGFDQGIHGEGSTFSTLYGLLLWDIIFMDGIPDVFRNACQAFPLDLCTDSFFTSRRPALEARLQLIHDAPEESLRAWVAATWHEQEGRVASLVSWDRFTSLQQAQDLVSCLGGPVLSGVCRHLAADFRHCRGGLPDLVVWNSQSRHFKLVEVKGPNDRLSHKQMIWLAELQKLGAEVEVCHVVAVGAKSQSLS

Data set [2] concerns the target trFAN1 crystallization construct (human, UniProt Q9Y2M0 364-1017, R507H;K794A;del510-518). Put plainly: X-ray crystallography; 2.65 Å; MST: 25 mM HEPES pH 7.5, 125 mM KCl, 10 mM CaCl2, 5% glycerol, 1 mM TCEP, 0.005% Tween-20, 0.1% BSA, 10 nM Cy5-DNA, 25 °C; SPR buffer not in the material. The following applies: protein: recombinant; tags: His tag removed by PreScission; double flap: 1:2 1:3; 5' flap 1 nt (pG), 3' flap T4.

The target of data set [3] is T1, FAN1 WT. Briefly: SPR; no PCNA; MST: 25 mM HEPES pH 7.5, 125 mM KCl, 10 mM CaCl2, 5% glycerol, 1 mM TCEP, 0.005% Tween-20, 0.1% BSA, 10 nM Cy5-DNA, 25 °C; SPR buffer not in the material. The following applies: protein: recombinant; tags: His tag removed by PreScission; label: 5'-biotin (SPR); blunt; one unpaired nt in strand 2.
Data set [4] deals with T2, PCNA WT;FAN1 WT (human;human, UniProt P12004;Q9Y2M0 1-261;1-1017, |). Put plainly: SPR; PCNA titrated, 100 nM FAN1; MST: 25 mM HEPES pH 7.5, 125 mM KCl, 10 mM CaCl2, 5% glycerol, 1 mM TCEP, 0.005% Tween-20, 0.1% BSA, 10 nM Cy5-DNA, 25 °C; SPR buffer not in the material. The following applies: protein: recombinant;recombinant; tags: His tag removed by PreScission;His tag removed by PreScission; chain copies: 3;1; label: 5'-biotin (SPR); blunt; one unpaired nt in strand 2. For orientation: In SPR one partner is held on a chip, and binding of the other changes the refractive index at the surface.
T2 sequence (P12004 whole entry, chain 1 of 2): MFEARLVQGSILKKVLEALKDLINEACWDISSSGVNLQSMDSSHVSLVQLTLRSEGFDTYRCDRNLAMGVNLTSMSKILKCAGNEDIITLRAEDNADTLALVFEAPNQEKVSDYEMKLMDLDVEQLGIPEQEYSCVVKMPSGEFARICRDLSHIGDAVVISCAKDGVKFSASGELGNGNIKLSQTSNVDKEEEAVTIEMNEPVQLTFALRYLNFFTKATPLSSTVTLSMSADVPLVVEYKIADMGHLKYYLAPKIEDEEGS
T2 sequence (Q9Y2M0 whole entry, chain 2 of 2): as the sequence (Q9Y2M0 whole entry) above

The target of data set [5] is PCNA WT;FAN1 R507H (human;human, UniProt P12004;Q9Y2M0 1-261;1-1017, |R507H). The data set is described as above. The following applies: protein: recombinant;recombinant; tags: His tag removed by PreScission;His tag removed by PreScission; chain copies: 3;1; label: 5'-biotin (SPR); blunt; one unpaired nt in strand 2.
Sequence of PCNA WT;FAN1 R507H (P12004 whole entry, chain 1 of 2): as the sequence (P12004 whole entry, chain 1 of 2) above
Sequence of PCNA WT;FAN1 R507H (Q9Y2M0 whole entry R507H, chain 2 of 2): as the sequence (Q9Y2M0 whole entry) above, with R507H counted along it
Data set [6] addresses FAN1 WT;PCNA WT (human;human, UniProt Q9Y2M0;P12004 1-1017;1-261, |). Put plainly: SPR; FAN1 titrated, 10 µM PCNA WT; MST: 25 mM HEPES pH 7.5, 125 mM KCl, 10 mM CaCl2, 5% glycerol, 1 mM TCEP, 0.005% Tween-20, 0.1% BSA, 10 nM Cy5-DNA, 25 °C; SPR buffer not in the material. The following applies: protein: recombinant;recombinant; tags: His tag removed by PreScission;His tag removed by PreScission; copies: 1;3; label: 5'-biotin (SPR); blunt; one unpaired nt in strand 2.

Data set [7] concerns the target PCNA WT;trFAN1 WT (human;human, UniProt P12004;Q9Y2M0 1-261;371-1017, |). Briefly: SPR; PCNA titrated, 100 nM trFAN1; MST: 25 mM HEPES pH 7.5, 125 mM KCl, 10 mM CaCl2, 5% glycerol, 1 mM TCEP, 0.005% Tween-20, 0.1% BSA, 10 nM Cy5-DNA, 25 °C; SPR buffer not in the material. The following applies: protein: recombinant;recombinant; tags: His tag removed by PreScission;His tag removed by PreScission; chain copies: 3;1; label: 5'-biotin (SPR); blunt; one unpaired nt in strand 2.

The target of data set [8] is PCNA D232A;trFAN1 R507H (human;human, UniProt P12004;Q9Y2M0 1-261;371-1017, D232A|R507H). Described as above. The following applies: protein: recombinant;recombinant; tags: His tag removed by PreScission;His tag removed by PreScission; chain copies: 3;1; label: 5'-biotin (SPR); blunt; one unpaired nt in strand 2.
Sequence of PCNA D232A;trFAN1 R507H (P12004 whole entry D232A, chain 1 of 2): as the sequence (P12004 whole entry, chain 1 of 2) above, with D232A counted along it
Sequence of PCNA D232A;trFAN1 R507H (Q9Y2M0 371-1017 R507H, chain 2 of 2): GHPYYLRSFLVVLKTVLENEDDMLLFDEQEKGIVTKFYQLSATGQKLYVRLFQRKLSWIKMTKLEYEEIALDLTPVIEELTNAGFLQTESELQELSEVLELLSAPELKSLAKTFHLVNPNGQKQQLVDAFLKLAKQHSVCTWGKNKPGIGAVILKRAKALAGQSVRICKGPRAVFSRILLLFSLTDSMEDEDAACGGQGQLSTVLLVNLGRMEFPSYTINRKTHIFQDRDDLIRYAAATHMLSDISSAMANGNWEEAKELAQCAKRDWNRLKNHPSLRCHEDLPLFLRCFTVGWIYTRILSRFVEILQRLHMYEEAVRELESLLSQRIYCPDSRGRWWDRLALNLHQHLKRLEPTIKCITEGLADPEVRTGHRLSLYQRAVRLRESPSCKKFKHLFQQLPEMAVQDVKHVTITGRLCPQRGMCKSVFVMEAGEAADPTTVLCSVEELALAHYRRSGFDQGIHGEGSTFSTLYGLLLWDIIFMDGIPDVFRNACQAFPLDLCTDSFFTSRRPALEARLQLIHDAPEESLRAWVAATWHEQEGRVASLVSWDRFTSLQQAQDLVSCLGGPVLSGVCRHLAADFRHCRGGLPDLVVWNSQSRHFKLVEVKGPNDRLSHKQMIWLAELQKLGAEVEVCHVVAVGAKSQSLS
In data set [9] the target is FAN1 WT;PCNA D232A (human;human, UniProt Q9Y2M0;P12004 1-1017;1-261, |D232A). Put plainly: SPR; FAN1 titrated, 10 µM PCNA D232A; MST: 25 mM HEPES pH 7.5, 125 mM KCl, 10 mM CaCl2, 5% glycerol, 1 mM TCEP, 0.005% Tween-20, 0.1% BSA, 10 nM Cy5-DNA, 25 °C; SPR buffer not in the material. The following applies: protein: recombinant;recombinant; tags: His tag removed by PreScission;His tag removed by PreScission; copies: 1;3; label: 5'-biotin (SPR); blunt; one unpaired nt in strand 2.
Sequence of FAN1 WT;PCNA D232A (Q9Y2M0 whole entry, chain 1 of 2): as the sequence (Q9Y2M0 whole entry) above
Sequence of FAN1 WT;PCNA D232A (P12004 whole entry D232A, chain 2 of 2): as the sequence (P12004 whole entry, chain 1 of 2) above, with D232A counted along it

For data set [10], the target named is T2, PCNA WT;FAN1 WT. Put plainly: SPR; 100 nM FAN1; Kd within 4-fold of homoduplex; koff 8.9e-3 s-1, slowest; MST: 25 mM HEPES pH 7.5, 125 mM KCl, 10 mM CaCl2, 5% glycerol, 1 mM TCEP, 0.005% Tween-20, 0.1% BSA, 10 nM Cy5-DNA, 25 °C; SPR buffer not in the material. The following applies: protein: recombinant;recombinant; tags: His tag removed by PreScission;His tag removed by PreScission; chain copies: 3;1; label: 5'-biotin (SPR); blunt; (CAG)2 loop in strand 1.

Sequence of FAN1 WT;PCNA WT (Q9Y2M0 whole entry, chain 1 of 2): as the sequence (Q9Y2M0 whole entry) above
Sequence of FAN1 WT;PCNA WT (P12004 whole entry, chain 2 of 2): as the sequence (P12004 whole entry, chain 1 of 2) above
Sequence of trFAN1 crystallization construct (Q9Y2M0 other isoform, or with tags, fused parts or gaps R507H;K794A;del510-518): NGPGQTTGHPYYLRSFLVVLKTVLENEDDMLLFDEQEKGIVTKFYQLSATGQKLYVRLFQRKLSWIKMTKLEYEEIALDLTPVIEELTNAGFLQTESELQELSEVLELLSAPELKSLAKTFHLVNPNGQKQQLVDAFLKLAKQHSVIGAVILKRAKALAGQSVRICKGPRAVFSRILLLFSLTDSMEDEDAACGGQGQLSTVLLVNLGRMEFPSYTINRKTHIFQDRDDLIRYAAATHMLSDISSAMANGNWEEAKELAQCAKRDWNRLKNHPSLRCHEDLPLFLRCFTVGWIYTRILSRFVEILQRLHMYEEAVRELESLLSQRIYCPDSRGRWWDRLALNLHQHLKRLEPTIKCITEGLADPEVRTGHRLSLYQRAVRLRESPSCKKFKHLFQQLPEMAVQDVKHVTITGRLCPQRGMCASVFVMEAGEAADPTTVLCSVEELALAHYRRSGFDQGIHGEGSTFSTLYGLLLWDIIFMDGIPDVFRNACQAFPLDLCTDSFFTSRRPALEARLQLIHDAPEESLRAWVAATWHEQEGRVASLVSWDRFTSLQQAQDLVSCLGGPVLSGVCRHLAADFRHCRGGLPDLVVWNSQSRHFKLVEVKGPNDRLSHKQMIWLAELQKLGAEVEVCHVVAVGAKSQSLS
Sequence of PCNA WT;trFAN1 WT (P12004 whole entry, chain 1 of 2): as the sequence (P12004 whole entry, chain 1 of 2) above
Sequence of PCNA WT;trFAN1 WT (Q9Y2M0 371-1017, chain 2 of 2): as the sequence (Q9Y2M0 371-1017 R507H, chain 2 of 2) above, with H137R counted along it

B1: 5' flap DNA (cryo-EM substrate) (dsDNA)
DNA 1: CCCGTCCAGGTCTCGTCCGCGCCACTCGTGTCCAGCGTCG
DNA 2: TGCGGACGAGACCTGGACGGG
DNA 3: CGACGCTGGACACGAGTGGCTTTTTTTT
modifications: 5'-phosphate on strand 2
On to B1, for which the binding result in data set [1] was “binds”.

B2: 5'pG1/3'T4 double flap DNA (crystallography) (dsDNA)
DNA 1: AACACGCCTAGACTCCTCA
DNA 2: TTTGAGGAGTCTTTTT
DNA 3: GAGGCGTG
modifications: 5'-phosphate on strand 3
Turning to B2, the binding result in data set [2] is “binds”.

B3: 113 bp homoduplex (dsDNA)
DNA 1: CCGCTTTCTTCCCTTCCTTTGTGCACACGTTCCGAGATATCCTAGCAAGTGATCGTCTATGTAGCTCAAGAGTTCGACTTTCCCCGCTAAGCTCTACATCCGAGGCTCGCCGA
DNA 2: TCGGCGAGCCTCGGATGTAGAGCTTAGCGGGGAAAGTCGAACTCTTGAGCTACATAGTACGATCACTTGCTAGGATATCTCGGAACGTGTGCACAAAGGAAGGGAAGAAAGCGG
The Kd is the equilibrium constant for the complex coming apart. Consider B3, for which the Kd in [3] was 7 ± 2.4 nM; in data set [4], 1600 ± 900 nM; in data set [5] it was 3000 ± 800 nM; in [6], 7.2 ± 2.4 nM; in data set [7], 3900 ± 1300 nM; in [8], 14000 ± 5100 nM. For the same molecule, in data set [9], the equilibrium dissociation constant (Kd) stood at 5.4 ± 1.7 nM.

B4: 113 bp (CAG)2 extrahelical extrusion (dsDNA)
DNA 1: CCGCTTTCTTCCCTTCCTTTGTGCACACGTTCCGAGATATCCTAGCAAGTGATCGTCAGCAGCTATGTAGCTCAAGAGTTCGACTTTCCCCGCTAAGCTCTACATCCGAGGCTCGCCGA
DNA 2: B3 DNA 2
As to B4, the binding result in data set [10] is recorded as “binds”.
